Patent US20230227838A1, “ENHANCED CELL SURVIVAL AGAINST BIOTIC AND ABIOTIC STRESSES THROUGH SALICYLICK ACID-INDUCED NPR1 CONDENSATES” (priority 2020, published 2023)
Where a chain is given by its changes, count along the chain named.

B1: rdr1: NPR1 with cysteine cluster of RDR1 mutated (C150/155/156/160A) (protein)
chain: MDTTIDGFADSYEISSTSFVATDNTDSSIVYLAAEQVLTGPDVSALQLLSNSFESVFDSPDDFYSDAKLVLSDGREVSFHRCVLSARSSFFKSALAAAKKEKDSNNTAAVKLELKEIAKDYEVGFDSVVTVLAYVYSSRVRPPPKGVSEAADENAAHVAARPAVDFMLEVLYLAFIFKIPELITLYQRHLLDVVDKVVIEDTLVILKLANICGKACMKLLDRCKEIIVKSNVDMVSLEKSLPEELVKEIIDRRKELGLEVPKVKKHVSNVHKALDSDDIELVKLLLKEDHTNLDDACALHFAVAYCNVKTATDLLKLDLADVNHRNPRGYTVLHVAAMRKEPQLILSLLEKGASASEATLEGRTALMIAKQATMAVECNNIPEQCKHSLKGRLCVEILEQEDKREQIPRDVPPSFAVAADELKMTLLDLENRVALAQRLFPTEAQAAMEIAEMKGTCEFIVTSLEPDRLTGTKRTSPGVKIAPFRILEEHQSRLKALSKTVELGKRFFPRCSAVLDQIMNCEDLTQLACGEDDTAEKRLQKKQRYMEIQETLKKAFSEDNLELGNSSLTDSTSSTSKSTGGKRSNRKLSHRRR
modifications: A. thaliana npr1 rdr1 protein
B2: rdr2: NPR1 with cysteine cluster of RDR2 mutated (C378/385/394A) (protein)
chain: B1 chain with A150C, A155C, A156C, A160C, C378A, C385A, C394A
modifications: A. thaliana npr1 rdr2 protein
B3: ACTD: NPR1 with the C-terminal domain (CTD) deleted (protein)
chain: MDTTIDGFADSYEISSTSFVATDNTDSSIVYLAAEQVLTGPDVSALQLLSNSFESVFDSPDDFYSDAKLVLSDGREVSFHRCVLSARSSFFKSALAAAKKEKDSNNTAAVKLELKEIAKDYEVGFDSVVTVLAYVYSSRVRPPPKGVSECADENCCHVACRPAVDFMLEVLYLAFIFKIPELITLYQRHLLDVVDKVVIEDTLVILKLANICGKACMKLLDRCKEIIVKSNVDMVSLEKSLPEELVKEIIDRRKELGLEVPKVKKHVSNVHKALDSDDIELVKLLLKEDHTNLDDACALHFAVAYCNVKTATDLLKLDLADVNHRNPRGYTVLHVAAMRKEPQLILSLLEKGASASEATLEGRT
modifications: left off: small tags and cut ends
notes: NPR1 with the C-terminal domain (CTD) deleted

Legend:
[1] = test system: cytoplasmic condensates (SINCs); experiment: Confocal imaging of localization and condensate (body) formation of GFP-fused NPR proteins and variants; format: cell-based, Nicotiana benthamiana; details: no SA treatment / mock
Procedure: (§1) Plant transformation: For plant transformations, the Agrobacterium tumefaciens strain GV3101 was transformed with plant binary vectors carrying the indicated transgenes. For stable expression in Arabidopsis, a floral dipping method was used. For transient expression in N benthamiana, the Agrobacterium carrying the indicated construct was cultured overnight at 28° C. in Luria-Bertani (LB) broth medium supplemented with appropriate antibiotics: spectinomycin (100 μg/ml), kanamycin (50 μg/ml), gentamycin (50 μg/ml), and rifampicin (25 μg/ml). The obtained culture was re-inoculated at 1:10 into fresh growth media with antibiotics and grown for another 4 hr. Cells were then spun down at 1,600 g for 10 min, and inoculum was prepared by resuspending cells to OD600 nm=1 in double distilled water (DDW) containing 200 μM acetosyringone (Sigma). Unless otherwise stated, for co-IP, co-localization, and BiFC assays in N. benthamiana, the proteins were co-expressed at 1:1 mixture of the relevant Agrobacteria inoculums. In all BiFC assays, the pair of YN/YC fusions was co-expressed together with free mCherry to mark the cytoplasm and nucleus, mCherry-NLS to mark the nucleus only, or mCherry-fused test proteins for co-localization analysis. The inoculum was pressure infiltrated into N. benthamiana leaves at the abaxial side using 1 ml syringe without the needle. Due to low overall levels of NPR1-GFP in transgenic plants, a transient expression assay in Arabidopsis seedlings was used to monitor NPR1-GFP subcellular localization after SA treatment (FIG. 2B). To limit the imaging time in this transient assay (2 hours), a higher baseline SA concentration had to be used. Seeds of WT (Col-0) Arabidopsis were germinated on solid half-strength Murashige and Skoog (1/2 MS) medium and grown for 4 days. Agrobacterium carrying the indicated constructs was grown overnight in LB medium supplemented with appropriate antibiotics. The obtained culture was re-inoculated at 1:10 into virulence induction medium [50.78 mM MES, 0.5% Glucose, 1.734 mM NaH2PO4, 5% of 20X-AB mix (373.9 mM NH4C1, 24.34 mM MgSO4, 40.23 mM KCl, 1.36 mM CaCl2 and 0.18 mM FeSO4·7H2O), 200 μM acetosyringone] supplemented with 25 μg/ml rifampicin and grown for another 24 hr at 28° C. to OD600=0.8 (inoculum). Seedlings were vacuum-infiltrated with the inoculum, and at 48 hpi (hours post inoculation), treatments were performed by submerging the transformed seedlings in water or SA solution at indicated concentrations for 2 hr. Entire cotyledons were sampled for microscopy.
Confocal laser scanning microscopy. Unless otherwise indicated, all imaging data and micrographs for single protein imaging, co-localizations, BiFC and time-lapse were obtained from the transient expression in N. benthamiana using the relevant Agrobacteria strains. All imaging was done with confocal laser scanning fluorescence microscopy using Zeiss 880 airyscan inverted confocal microscope with a 40×/1.2 water correction objective. GFP (eGFP) was excited with a 488 nm argon laser and emission was collected with a 505-530 nm band pass filter. YFP was excited with an argon laser using a 514 nm beam splitter, and emission was detected with a 520-555 nm band pass filter. mCherry was excited with a 561 nm diode laser, and emission was detected with a 575-615 nm band pass filter. When eGFP/YFP were imaged together with mCherry, a spectral GASP detector was used to collect emission from eGFP/YFP. Propidium iodide (PI) was excited with 488 nm argon laser and emission was detected with a 590-620 nm band pass filter. Time-lapse imaging was carried out on live leaf tissue samples from N. benthamiana plants transiently expressing the protein of interest. Image acquisition was done in 5 min intervals for the duration of 2 hr by scanning 30 consecutive focal planes along the Z-axis covering the entire thickness of an epidermal cell. Z-projection was done to each time frame stack before composing a final time-lapse file. […]

[2] = test system: Psm ES4326/AvrRpt2-mediated cell death; experiment: Cell death (conductivity/electrolyte leakage, trypan blue) after Psm ES4326/AvrRpt2 inoculation; format: in vivo, Arabidopsis thaliana; details: transgenic plants expressing the mutant in npr1-2 background; 1 mM SA 24 hr before inoculation
Procedure: Chemical treatment, pathogen infection and cell death assays. […] At 2 days, the bacterial colonies were scored.
Trypan blue staining. Leaves of three-week-old Arabidopsis infected with Psm ES4326/AvrRpt2 were sampled at 1 dpi, boiled in 95% ethanol until completely bleached, followed by boiling for 3 min in a 1:1 mixture of 95% ethanol and staining solution (10 ml lactic acid, 10 ml glycerol, 10 g phenol and 10 mg trypan blue, dissolved in 10 ml DDW). The leaves were then de-stained in 2.5 g/ml chloral hydrate solution and transferred to 70% glycerol for subsequent imaging.

CUL3 = experiment: Co-IP of Myc-CUL3 with HA-fused NPR1 or variants; format: binding, Arabidopsis thaliana; details: for CUL3 pull-down signal in co-IP: 1 mM SA for 5 hr
Procedure: as §1
Protein analysis and IP. Recombinant protein analysis was performed using transient expression in N. benthamiana, or stable over-expression in transgenic Arabidopsis, or expression in E. coli. Total protein extraction from plants was performed by homogenizing leaf tissue in the plant extraction buffer [50 mM Tris-HCl (pH 7.5), 150 mM NaCl, 5 mM EDTA, 0.2% Triton X-100, 0.2% Nonidet P-40] supplemented with 1 mM PMSF, 100 μM MG132, and EDTA-free protease inhibitor cocktail (Roche). For ubiquitinated protein analysis in plants, 100 μM of DUB (deubiquitinase) inhibitor (LifeSensors) and 10 mM NEM were added. Next, the lysates were cleared by centrifugation at 14,000 rpm for 15 min followed by filtering through a 0.2 μm filter. […] Pull-downs or IP experiments were done on total protein extracts by incubating protein samples in the lysis buffer overnight with indicated affinity tag or antibody conjugated to agarose or magnetic beads: GFP-trap agarose beads (Chromotek) for GFP fusions; RFP-trap agarose beads (Chromotek) for mCherry fusions; anti-HA magnetic beads (ThermoFisher) for HA tag fusions; anti-DYKDDDDK coupled magnetic agarose (ThermoFisher) for FLAG tag fusions; and glutathione magnetic agarose (ThermoFisher) for GST fusions. Unless otherwise indicated, after pull-down/IP, beads were washed 3 times and proteins were eluted by boiling in the 2×SDS sample buffer. […]

Molecule | condensate formation in the absence of SA (constitutive) [1] | protection against cell death induced by Psm ES4326/AvrRpt2 (SA-mediated survival phenotype) [2] | CUL3 pull-down signal in co-IP (CUL3) | CUL3 pull-down in co-IP in the absence of SA (CUL3; absence of SA)
B1 | formed cytoplasmic condensates in the absence of SA treatment | no protection against cell death | strong interactions with CUL3 | –
B2 | formed cytoplasmic condensates in the absence of SA treatment | stronger protection | strong interactions with CUL3 | –
B3 | formed constitutive condensates | – | – | significantly enhanced the interaction with CUL3
